The record followed here is patent US6632626.

Data set [1] deals with rat brain farnesyl:protein transferase (rat) (UniProt Q04631). Nature of the data set: cell-based or functional assay.
Data set [2] deals with biotinylated KTSCVIM.

As for “CVIM with glutamic acid at the A2 position (peptide)”, the fold decline of affinity for the enzyme in data set [1] is more than 50 fold.
“CVIM with glycine at the A2 position (peptide)” showed a concentration giving 50% inhibition (farnesyl transfer to p21^H-ras) in data set [1] of 8 µM.
In data set [1], “CVIM with lysine at the A2 position (peptide)” came in with a fold decline of affinity for the enzyme of more than 50 fold and a fold decrease of affinity for the enzyme against CVIM of more than 30 fold.
For rat brain farnesyl:protein transferase, the “farnesylation of the peptide (substrate activity)” value in data set [2] is given as “The studies with the biotinyated heptapeptide ( FIG. 12B ) confirm that at least some of the short peptides act as substrates for the enzyme”.
